Assay: In vivo pharmacokinetic study of NC2st administered IV or SC in C57BL/6 mice
Details: male mice; for AUClast: 20 mg/kg single dose, serum
Description: NC2st was formulated at a concentration of 5.79 mg/mL in 25 mM sodium phosphate pH 7.4, 150 mM NaCl. The animals received NC2st as a single IV or SC dose (20 mg/kg) as described in Table 3 below. Injections were scheduled between 7:00 and 10:15 AM. Each mouse was injected with test article subcutaneously into the scapular region or immobilized in a rodent restrainer and injected with the test article as an intravenous bolus via the caudal vein. […] The animals received only one dose before scheduled blood collection and sacrifice. Individual body weights were assessed before scheduled test article injection and the volume of test article administered was based on body weight determination. Blood samples (0.1 to 0.12 mL) were collected via a jugular vein under isoflurane anesthesia at different time points. At the last time point, blood samples were collected by cardiac puncture under isoflurane anesthesia. Blood samples were collected into Microvette 200Z/gel tube (Sarstedt, serum/gel clotting activator, #20.1291), incubated at room temperature for 30 to 60 minutes, and centrifuged at 10,000×g for five minutes at 2-8° C. Serum was then transferred into a fresh 0.5 mL tube (Sarstedt, #72.699), snap-frozen in liquid nitrogen, and stored at -80° C. until analysis. […] Formulated NC2st protein spiked in serum served as a standard. Pharmacokinetic profiles were derived from the concentration measured by EIA. A non-compartmental analysis (NCA) was used to calculate the pharmacokinetic parameters of testing compound. […] NCA Model 200 was selected for extravascular input or Model 201 for IV-Bolus input using sparse sampling analysis module for both models. The following non-compartmental PK parameters were calculated: • Area under the curve from time zero to the last detectable concentration (AUClast), calculated using the linear trapezoidal (linear interpolation); • Area under the curve from time zero to infinity (AUC∞) calculated [NT]λz (where λz=slope of the terminal phase of the serum concentration vs time curve); • Maximum observed serum concentration (Cmax), time of maximum serum concentration (Tmax); • Terminal elimination half-life (T1/2, calculated as 0.693/λz); • Systemic clearance (CL) was calculated as Dose/AUC∞ and • Total volume of distribution (Vss) was calculated using CL×MRT, where MRT is the mean residence time. Absolute bioavailability (F %) between routes was calculated using the following formula: [AUC∞ (sc)/Dose(sc)]/[AUC∞ (iv)/Dose(iv)]×100. Nominal times were used in the calculations and times are set relative to start of dosing. Nominal doses were used for the calculation of CL.

NC2st: Fc-CNP fusion: Strep-tag II, TEV site, human IgG-1 Fc, 16-amino acid glycine-rich linker, CNP22; SEQ ID NO: 502
AUC∞ (IV, 20 mg/kg): 28,563 hr · nmol/L
CL (IV, 20 mg/kg): 0.187 mL/min/kg
Cmax (IV, 20 mg/kg): 2100 nM
Half-life (IV, 20 mg/kg): 10.6 h
Tmax (IV, 20 mg/kg): 1.00 h
Vss (IV, 20 mg/kg): 0.173 L/kg
AUClast (IV): 27,587 hr · nmol/L
increase of SC half-life over intravenous CNP22 (SC): approximately 340 fold
Bioavailability (SC vs IV, 20 mg/kg): 68.5%
AUC∞ (SC, 20 mg/kg): 19,592 hr · nmol/L
CL_F (SC, 20 mg/kg): 0.272 mL/min/kg
Cmax (SC, 20 mg/kg): 798 nM
Half-life (SC, 20 mg/kg): 14.3 h
Tmax (SC, 20 mg/kg): 6.00 h
Vss_F (SC, 20 mg/kg): 0.353 L/kg
AUClast (SC): 17,735 hr · nmol/L
